Data: patent US10654896B2, “FoxP3-binding peptides and uses thereof” (FUNDACIÓN PARA LA INVESTIGACIÓN MÉDICA APLICADA, priority 2016, dated 2020)
Where a SMILES comes first, the peptide text is derived from it. Where no end group is shown, it is not given here. [ ]: non-standard residue; d: D form.

Key:
human FOXP3 (FOXP3-6His) = target: T1, human FOXP3 (FOXP3-6His) (Homo sapiens, UniProt Q9BZS1); assay: Peptide binding to FOXP3 by surface plasmon resonance (SPR); conditions: for Binding to Foxp3 Ratio binding Peptide/p60 (fold change): peptides 1-20 μM, ratio to p60 (SEQ ID NO: 1)
T1 construct: 6xHis (C); made in house; host or cells: E. coli BL21 (DE3)
T1 sequence (Q9BZS1 1-431): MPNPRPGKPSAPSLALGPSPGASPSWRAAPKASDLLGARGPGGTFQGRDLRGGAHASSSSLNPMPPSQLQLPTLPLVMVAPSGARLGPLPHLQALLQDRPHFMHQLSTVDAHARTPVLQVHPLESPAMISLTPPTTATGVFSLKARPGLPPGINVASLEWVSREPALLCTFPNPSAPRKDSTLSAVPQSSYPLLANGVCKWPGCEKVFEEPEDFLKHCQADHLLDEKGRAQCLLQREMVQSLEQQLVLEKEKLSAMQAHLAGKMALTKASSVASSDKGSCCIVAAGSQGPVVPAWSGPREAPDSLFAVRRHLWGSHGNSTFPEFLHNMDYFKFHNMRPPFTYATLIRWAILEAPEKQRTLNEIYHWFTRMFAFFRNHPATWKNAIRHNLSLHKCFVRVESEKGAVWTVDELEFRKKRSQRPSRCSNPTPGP
Description: Plasmid pET20b FOXP3-His was generated to produce the human FOXP3 tagged with 6 histidines at the C terminus of the protein. Briefly, plasmid pDEST15-FOXP3 (provided by Dr. Casal, Madrid, Spain) was used as template to amplify FOXP3 by PCR using the primers Upper FOXP3 Ndel catatgcccaaccccaggc (SEQ ID NO: 55) and Lower FOXP3 […] (SEQ ID NO: 56). The resulting fragment was subcloned in pET20b at Ndel and NotI sites. pET45b His-Runx1 was obtained by PCR of activated human CD4 T cells obtained from healthy volunteers (after the signature of an informed consent) using the primers Upper Runx1 atgcgtatccccgtagatg (SEQ ID NO: 57) and Lower Runx1 […] (SEQ ID NO: 58) and the fragment was cloned in pcDNA3.1. Then, pET45b and pcDNA3.1-Runx1 were digested with BamHI and NotI and ligated to obtain pET45b-Runx1. Plasmids were used to transform BL21 cells (DE3; Novagen, Schwalbach, Germany) for the expression of the recombinant protein. The transformed BL21 cells were grown in LB medium at 37° C. (1 liter of final culture medium) (with ampicilin 0.1 mg/ml). Once the OD of the culture was between 0.5 and 1.0, IPTG (0.4 mM, final concentration) was added. Bacteria were then cultured overnight in agitation and centrifuged for 10 min at 8000 rpm. Cell pellet was then resuspended in 4 ml Tris-HCl 0.1 M and frozen at −80° C. Cell pellet was then thawed and incubated with lisozyme (25 KU) and a protease inhibitor cocktail for 15 min at 30° C. before cell lysis induced with a French-press. The resultant pool was then centrifuged during 20 min at 11.000 rpm). The recombinant protein was purified from the soluble fraction of French-press cell extracts by affinity chromatography (Histrap, Pharmacia) following manufacturer's instructions and using an FPLC platform (AKTA, Pharmacia). Plasmid pDEST15-FOXP3 encoding the fusion protein GST-FOXP3 (GST fused to the isoform A from human FOXP3 gene), was transformed into BL21 cells for the expression of the recombinant protein. GST-FOXP3 protein was purified from the soluble fraction of cell extracts obtained, as described above, by affinity chromatography (GSTrap; Amersham, Piscataway, N.J.) using a fast protein liquid chromatography platform (AKTA; Amersham) following manufacturer's instructions. The eluted proteins were desalted using Hitrap desalting columns (Pharmacia) and analyzed by SDS-PAGE using Coomassie blue (Bio-Safe Coomassie reagent; Bio-Rad, Hercules, Calif.) and by Western blot.
Screening of peptide binding to FOXP3 was performed by surface plasmon resonance (SPR) using ProteOn XPR36 (Bio-Rad, Hercules Calif., USA) optical biosensor. Recombinant protein FOXP3-6His was produced and purified from E. coli as disclosed in previous section and was immobilized covalently onto a GLM sensor chip (176-5012, Bio-Rad) using sulfo-NHS and EDC (Bio-Rad) coupling reagents and the manufacturer's instructions. After protein immobilization, chip surface was treated with ethanolamine to deactivate the excess of reactive esters.
Individual solutions of the peptides to be tested (1-20 μM) were injected by triplicate in running buffer (Phosphate buffered saline, 0.005% (v/v) Tween 20, pH 7.4) at a flow of 30 μl/min. The interspot signal (obtained in the chip surface not immobilized with protein) was used as reference. The results are summarized in Table 6 below as the ratio Peptide of the invention/p60.

[1] = Human liver microsomal stability; format: in vitro ADME; conditions: human liver microsomes
Method: (§1) The data collected were analyzed to calculate a half-life (t1/2, min) for tested peptides at a final concentration of 1 μM. Briefly, 5 μL of stock solution of tested peptide (10 mM) were diluted in 495 μL of 1:1 Methanol/Water (final concentration of 100 μM, 50% MeOH). Then, 50 μL of this intermediate solution were diluted in 450 μL of 100 mM potassium phosphate buffer to a concentration of 10 μM (working solution, 5% MeOH). The NADPH regenerating system contains β-Nicotinamide adenine dinucleotide phosphate (Sigma, Cat. # N0505), Isocitric acid (Sigma, Cat. #11252) and Isocitric dehydrogenase (Sigma, Cat. #12002) at a final concentration of 1 unit/mL at incubation.
(§2) Human liver microsomes were obtained from BD Gentest (Cat. #452117) and mouse liver microsomes from Xenotech (Cat. # M1000), to a final concentration of 0.7 mg protein/mL. A volume of 10 μL of peptide solution and 80 μL of microsome solution were added to a 96-well plate and incubated for 10 min at 37° C. The reaction was started by the addition of 10 μL of NADPH regenerating system and stopped by the addition of 300 μL of stop solution (ACN at 4° C., including 100 ng/mL Tolbutamide and 100 ng/mL of Labetalol as internal standard) at different incubation times (0, 5, 10, 20, 30 and 60 min). Concentrations of test compound were quantified by LC-MS/MS methodologies (Shimadzu LC 20-AD/API4000) using peak area ratio of analyte/internal standard and the percent loss of parent compound was calculated under each time point to determine the half-life.

[2] = Mouse liver microsomal stability; format: in vitro ADME; conditions: mouse liver microsomes
Method: as §1, §2

[3] = 20 min, read-out: % Remaining after 20 min
[4] = 60 min, read-out: % Remaining after 60 min

Binding to Foxp3 Ratio binding Peptide/p60 (fold change) (human FOXP3 (FOXP3-6His)) | Molecule | other results
3.3 fold change | 6 (R[dA]FQSFRKMWPFFAM) [compound 6] | 
1.4 fold change | 7 (RSFQSFRKMWPFFAM) [compound 7] | 
1.4 fold change | 8 (RYFQSFRKMWPFFAM) [compound 8] | 
1.4 fold change | 11 (RNFQSFRKMWPFFAM) [compound 11] | 
2.2 fold change | 12 (RKFQSFRKMWPFFAM) [compound 12] | 
3.7 fold change | 16 (RDWQSFRKMWPFFAM) [compound 16] | 
3.3 fold change | 17 (RDYQSFRKMWPFFAM) [compound 17] | 
1.9 fold change | 18 (RDLQSFRKMWPFFAM) [compound 18] | 
3.7 fold change | 20 (RDFQRFRKMWPFFAM) [compound 20] | 
3.2 fold change | 21 (RDFQNFRKMWPFFAM) [compound 21] | 
2.4 fold change | 22 (RDFQWFRKMWPFFAM) [compound 22] | 
1.3 fold change | 23 (RDFQEFRKMWPFFAM) [compound 23] | 
4.6 fold change | 24 (RDFQYFRKMWPFFAM) [compound 24] | 
4.0 fold change | 25 (RDFQKFRKMWPFFAM) [compound 25] | 
2.6 fold change | 28 (RDFQSFRHMWPFFAM) [compound 28] | 
1.4 fold change | 29 (RDFQSFRRMWPFFAM) [compound 29] | 

Binding to Foxp3 Ratio binding Peptide/p60 (fold change) (human FOXP3 (FOXP3-6His)) | Molecule | other results
2.8 fold change | 31 (RDFQSFRKMWRFFAM) [compound 31] | 
1.4 fold change | 32 (RDFQSFRKMWNFFAM) [compound 32] | 
1.3 fold change | 33 (RDFQSFRKMWVFFAM) [compound 33] | 
1.3 fold change | 35 (RDFQSFRKMWYFFAM) [compound 35] | 
4.1 fold change | 37 (RDFQSFRKMWKFFAM) [compound 37] | 
1.1 fold change | 38 (RDFQSFRKMWAFFA[dM]-NH2; not fully specified (N-terminus)) [compound 38] | 
3.3 fold change | 39 (RDFQ[dA]FRKMWPFFAM-NH2; not fully specified (N-terminus)) [compound 39] | 
2.2 fold change | 40 (RDFQSFRKMW[dA]FFAM-NH2; not fully specified (N-terminus)) [compound 40] | 
4.1 fold change | 42 (H-RAFQAFRKMWPFFAM-OH) [compound 42] | 
4.9 fold change | 43 (R[dA]FQ[dA]FRKMWPFFAM-NH2; not fully specified (N-terminus)) [compound 43] | 
3.0 fold change | 44 (RAFQSFRKMWAFFAM-NH2; not fully specified (N-terminus)) [compound 44] | 
5.0 fold change | 49 (cyclo(RDFQSFRKMWPFFAM); also: R1 and R2 form a linker birradical which is -C(=O)-) [compound 49] | 
 | CSCC[C@@H]1NC(=O)[C@H](C)NC(=O)[C@H](Cc2ccccc2)NC(=O)[C@H](Cc2ccccc2)NC(=O)[C@@H]2CCCN2C(=O)[C@H](Cc2c[nH]c3ccccc23)NC(=O)[C@H](CCSC)NC(=O)[C@H](CCCCN)NC(=O)[C@H](CCCNC(=N)N)NC(=O)[C@H](Cc2ccccc2)NC(=O)[C@H](C)NC(=O)[C@H](CCC(N)=O)NC(=O)[C@H](Cc2ccccc2)NC(=O)[C@@H](C)NC(=O)[C@H](CCCNC(=N)N)NC1=O [compound 51] (cyclo(R[dA]FQAFRKMWPFFAM)) | remaining at 20 min, 1 μM [1, 3]: 48.7%; remaining at 1 h, 1 μM [1, 4]: 46.1%; half-life ([1]; peptide 1 μM, read-out: t1/2): 1.03 h; remaining at 20 min, 1 μM [2, 3]: 62.7%; remaining at 1 h, 1 μM [2, 4]: 47.7%; half-life ([2]; peptide 1 μM): 1.06 h
 | RAFQAFRKMWPFFAM [SEQ ID NO: 42] (H-RAFQAFRKMWPFFAM-OH) | increase in the binding to FoxP3 with respect to p60 (SEQ ID NO: 1) (human FOXP3 (FOXP3-6His)): about 400%
 | RDFQSFRKMWPFFAM (cyclo(RDFQSFRKMWPFFAM); also: R1 and R2 form a linker birradical which is -C(=O)-) [SEQ ID NO: 49, head-to-tail cyclic peptide] | increase in the binding to FoxP3 with respect to p60 (SEQ ID NO: 1) (human FOXP3 (FOXP3-6His)): about 500%

Molecule | Binding to Foxp3 Ratio binding Peptide/p60 (fold change) (human FOXP3 (FOXP3-6His)) | other results
CSCC[C@H](NC(=O)[C@H](C)NC(=O)[C@H](Cc1ccccc1)NC(=O)[C@H](Cc1ccccc1)NC(=O)[C@@H]1CCCN1C(=O)[C@H](Cc1c[nH]c2ccccc12)NC(=O)[C@H](CCSC)NC(=O)[C@H](CCCCN)NC(=O)[C@H](CCCNC(=N)N)NC(=O)[C@H](Cc1ccccc1)NC(=O)[C@H](CO)NC(=O)[C@H](CCC(N)=O)NC(=O)[C@H](Cc1ccccc1)NC(=O)[C@@H](CC(=O)O)NC(=O)[C@H](CCCNC(=N)N)NC(=O)CNC(C)=O)C(N)=O [compound 4] (Ac-GR[dD]FQSFRKMWPFFAM-NH2; C-terminus assumed) | 4.2 fold change | 
Ac-GRAFQSFRKMWPFFAM-NH2 (C-terminus assumed) [compound 13] | 3.2 fold change | 
